These results are taken from article doi:10.1101/2022.01.13.476167v2.

Substrate in data set [1]: CCCCCC(=O)N[C@H]1CCOC1=O
Description: purified protein. The conditions noted are these: 0.05 M phosphate buffer, pH 7.0, 35 °C.

Substrate in data set [2]: CCCCCCCC(=O)N[C@H]1CCOC1=O
Description: purified protein. As to conditions: 0.05 M phosphate buffer, pH 7.0, 35 °C.

Usually Km stands for the concentration of substrate that gives half-maximal velocity. For orientation: kcat means the maximal rate divided by the concentration of active sites.

B1: ecPGA (Escherichia coli penicillin G acylase) (Escherichia coli) (protein)
chain 1: EQSSSEIKIVRDEYGMPHIYANDTWHLFYGYGYVVAQDRLFQMEMARRSTQGTVAEVLGKDFVKFDKDIRRNYWPDAIRAQIAALSPEDMSILQGYADGMNAWIDKVNTNPETLLPKQFNTFGFTPKRWEPFDVAMIFVGTMANRFSDSTSEIDNLALLTALKDKYGVSQGMAVFNQLKWLVNPSAPTTIAVQESNYPLKFNQQNSQTA
chain 2: SNMWVIGKSKAQDAKAIMVNGPQFGWYAPAYTYGIGLHGAGYDVTGNTPFAYPGLVFGHNGVISWGSTAGFGDDVDIFAERLSAEKPGYYLHNGKWVKMLSREETITVKNGQAETFTVWRTVHGNILQTDQTTQTAYAKSRAWDGKEVASLLAWTHQMKAKNWQEWTQQAAKQALTINWYYADVNGNIGYVHTGAYPDRQSGHDPRLPVPGTGKWDWKGLLPFEMNPKVYNPQSGYIANWNNSPQKDYPASDLFAFLWGGADRVTEIDRLLEQKPRLTADQAWDVIRQTSRQDLNLRLFLPTLQAATSGLTQSDPRRQLVETLTRWDGINLLNDDGKTWQQPGSAILNVWLTSMLKRTVVAAVPMPFDKWYSASGYETTQDGPTGSLNISVGAKILYEAVQGDKSPIPQAVDLFAGKPQQEVVLAALEDTWETLSKRYGNNVSNWKTPAMALTFRANNFFGVPQAAAEETRHQAEYQNRGTENDMIVFSPTTSDRPVLAWDVVAPGQSGFIAPDGTVDKHYEDQLKMYENFGRKSLWLTKQDVEAHKESQEVLHVQR
As for B1, in “purified protein [1]”, the Km came out at 590 ± 70 µM and the kcat was 0.0090 ± 0.0003 s⁻¹. Moreover, in the data set “purified protein [2]”, the Km turned out to be 700 ± 40 µM and the turnover number (kcat) was determined as 0.0085 ± 0.0003 s⁻¹.
